In assay [1] the target is T1, human melanocortin 5 receptor (human, UniProt P33032 1-325).
T1 construct: whole, on cells; also called hMC5R; MC5R
Description: competitive binding vs Eu-NDP-alpha-MSH, time-resolved fluorescence, HEK293/hMC5R cells. The procedure:
(§1) Competitive binding assays were performed using HCT116/hMC1R cells and HEK293/hMC4R or hMC5R as previously described, with slight modifications. HCT116/hMC1R cells were plated in black PerkinElmer 96-well plates and HEK293/hMC4R and HEK293/hMC5R cells were plated on SigmaScreen Poly-D-Lysine Coated Plates (SigmaAldrich), all at a density of 10,000-30,000 cells/well. Poly-D-Lysine Coated Plates contain a PDL polymer coating that creates a uniform positive charge at the surface of the plastic, thereby facilitating cell attachment, growth and differentiation. […] Both labeled and non-labeled ligands were diluted in binding media (DMEM, 1 mM 1,10-phenanthroline, 200 mg/L bacitracin, 0.5 mg/L leupeptin, 0.3% BSA). In the case of the triblock polymer micelle solutions, micelles were allowed to equilibrate in solution for a period of 30 min prior to cell addition. Cells were incubated with labeled and non-labeled ligands for 1 hour at 37° C. Following incubation, cells were washed three times with wash buffer (50 mM Tris-HCl, 0.2% BSA, 30 mM NaCl) and 50 µL of enhancement solution (PerkinElmer) was added to each well. Cells were incubated for an additional 30 min at 37° C. prior to reading. […] Competition curves were analyzed with GraphPad Prism software using the sigmoidal dose-response (variable slope) classical equation for nonlinear regression analysis.

The target of assay [2] is T2, human melanocortin 1 receptor (human, UniProt Q01726 1-317).
T2 construct: whole, on cells; also called hMC1R; MC1R
Description: ratio of Ki values (MC5R over MC1R) from Eu-NDP-alpha-MSH competitive binding.

Assay [3] concerns the target T3, human melanocortin 4 receptor (human, UniProt P32245 1-332).
T3 construct: whole, on cells; also called hMC4R; MC4R
The experiment in a line: competitive binding vs Eu-NDP-alpha-MSH, time-resolved fluorescence, HEK293/hMC4R cells. The procedure:
as §1

Assay [4] addresses T2, human melanocortin 1 receptor. Description: ratio of Ki values (MC4R over MC1R) from Eu-NDP-alpha-MSH competitive binding.
The target is the same in assay [5]. Description: competitive binding vs Eu-NDP-alpha-MSH, time-resolved fluorescence, HCT116/hMC1R cells. The procedure: as §1
For assay [6] the target is unchanged. Description: cell-based or functional assay.
Assay [7] addresses MC5R expressed in the kidneys of the xenograft-bearing mice. Description: cell-based or functional assay.
The target in assay [8] is T2, human melanocortin 1 receptor. The experiment in a line: competition binding vs Eu-NDP-a-MSH, time-resolved fluorescence, A375/hMC1R cells.
The target is the same in assay [9]. The experiment in a line: competitive binding vs Eu-NDP-alpha-MSH, HCT116/hMC1R cells.

From patent US20160175384A1 (published 2016) come the findings set out here.

Square brackets hold non-standard residues; d marks the D form. Side chains are listed from the residue outwards. * marks the point of attachment. IR800CW = near-infrared dye IRDye800CW (maleimide); Cy5 = Cy5 fluorescent dye (maleimide); d2Nal = N[C@H](Cc1ccc2ccccc2c1)C(=O)O; Butanoyl(4-Ph) = O=C(CCCc1ccccc1)*; Butanoyl(4-ethynyl) = C#CCCCC(=O)*; hPhe = N[C@@H](CCc1ccccc1)C(=O)O; Nle = CCCC[C@H](N)C(=O)O; Mpa = O=C(O)CCS

T2 sequence (Q01726 whole entry): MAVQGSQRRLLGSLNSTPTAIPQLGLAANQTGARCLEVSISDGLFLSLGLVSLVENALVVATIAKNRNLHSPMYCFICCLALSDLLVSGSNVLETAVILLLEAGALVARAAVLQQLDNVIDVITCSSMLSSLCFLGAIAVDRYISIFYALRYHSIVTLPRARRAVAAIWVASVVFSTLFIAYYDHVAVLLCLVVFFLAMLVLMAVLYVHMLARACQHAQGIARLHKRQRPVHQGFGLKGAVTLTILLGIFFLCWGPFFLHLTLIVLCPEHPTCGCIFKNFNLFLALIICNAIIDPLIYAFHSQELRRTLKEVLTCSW
T1 sequence (P33032 whole entry): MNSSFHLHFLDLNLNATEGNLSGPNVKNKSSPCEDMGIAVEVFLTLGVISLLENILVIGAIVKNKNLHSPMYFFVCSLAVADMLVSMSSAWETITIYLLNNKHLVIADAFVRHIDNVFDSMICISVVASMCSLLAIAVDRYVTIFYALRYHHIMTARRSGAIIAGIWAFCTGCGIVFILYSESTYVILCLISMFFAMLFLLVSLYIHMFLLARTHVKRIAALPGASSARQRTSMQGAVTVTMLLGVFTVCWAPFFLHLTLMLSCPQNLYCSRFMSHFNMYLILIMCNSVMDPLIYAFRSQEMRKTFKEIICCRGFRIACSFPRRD
T3 sequence (P32245 whole entry): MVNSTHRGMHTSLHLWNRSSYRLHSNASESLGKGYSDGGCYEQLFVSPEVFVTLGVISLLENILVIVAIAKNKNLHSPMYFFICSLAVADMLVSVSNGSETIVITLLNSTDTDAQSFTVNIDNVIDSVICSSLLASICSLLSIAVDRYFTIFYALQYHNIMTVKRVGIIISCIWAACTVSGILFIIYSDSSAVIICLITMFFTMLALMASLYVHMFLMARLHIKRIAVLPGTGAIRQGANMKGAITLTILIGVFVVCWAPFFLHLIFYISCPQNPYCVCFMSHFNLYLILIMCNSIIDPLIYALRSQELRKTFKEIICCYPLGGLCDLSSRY
Chain of MC5R expressed in the kidneys of the xenograft-bearing mice (P41149 whole entry): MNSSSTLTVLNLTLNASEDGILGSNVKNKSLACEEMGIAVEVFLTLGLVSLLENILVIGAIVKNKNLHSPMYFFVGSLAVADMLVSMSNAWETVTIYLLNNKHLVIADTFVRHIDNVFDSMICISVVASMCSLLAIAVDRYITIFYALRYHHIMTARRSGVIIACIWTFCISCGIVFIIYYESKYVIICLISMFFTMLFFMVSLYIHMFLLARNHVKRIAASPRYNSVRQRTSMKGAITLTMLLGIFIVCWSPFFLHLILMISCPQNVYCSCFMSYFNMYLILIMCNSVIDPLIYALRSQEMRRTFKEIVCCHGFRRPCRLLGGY

B1: H-Lys(hex-5-ynoyl)Tyr-Val-Nle-Gly-His-DNal(2′)-Arg-DPhe-Asp-Arg-Phe-Gly-NH2 (peptide)
peptide: H-K(Butanoyl(4-ethynyl))YV[Nle]GH[d2Nal]R[dF]DRFG-NH2
SMILES: C#CCCCC(=O)NCCCC[C@H](N)C(=O)N[C@@H](Cc1ccc(O)cc1)C(=O)N[C@H](C(=O)N[C@@H](CCCC)C(=O)NCC(=O)N[C@@H](Cc1c[nH]cn1)C(=O)N[C@H](Cc1ccc2ccccc2c1)C(=O)N[C@@H](CCCNC(=N)N)C(=O)N[C@H](Cc1ccccc1)C(=O)N[C@@H](CC(=O)O)C(=O)N[C@@H](CCCNC(=N)N)C(=O)N[C@@H](Cc1ccccc1)C(=O)NCC(N)=O)C(C)C
notes: Synthetic; alkyne analogue of ligand 7; also called compound 8; ligand 8
On to B1, for which the inhibition constant Ki in assay [1] is 3.9 nM; in [3] it was 4.4 nM; in [5] it was 4.19 nM. The “1R/5R (selectivity ratio against MC5R)” value in [2] was found to be 0.93. The “1R/4R (selectivity ratio against MC4R)” value in assay [4] came to 1.05.

B2: H-Tyr-Val-Nle-Gly-His-DNal(2′)-Arg-DTrp-Asp-Arg-Phe-Gly-NH2 (peptide)
peptide: YVLGHXRWDRFG
modifications: Nle; DNal(2′); DTrp; C-terminal amide (NH2)
notes: Synthetic; also called compound 5; ligand 5
With B2, the Ki in assay [1] amounted to 0.76 nM.

B3: H-Tyr-Val-Nle-Gly-His-DNal(2′)-Arg-DPhe-Asp-Arg-Phe-Gly-NH2 (peptide)
peptide: H-YV[Nle]GH[d2Nal]R[dF]DRFG-NH2
SMILES: CCCC[C@H](NC(=O)[C@@H](NC(=O)[C@@H](N)Cc1ccc(O)cc1)C(C)C)C(=O)NCC(=O)N[C@@H](Cc1c[nH]cn1)C(=O)N[C@H](Cc1ccc2ccccc2c1)C(=O)N[C@@H](CCCNC(=N)N)C(=O)N[C@H](Cc1ccccc1)C(=O)N[C@@H](CC(=O)O)C(=O)N[C@@H](CCCNC(=N)N)C(=O)N[C@@H](Cc1ccccc1)C(=O)NCC(N)=O
notes: Synthetic; also called compound 7; ligand 7
Consider B3, for which the Ki in [1] turned out to be 0.71 nM; in [3], 0.77 nM; in assay [5], 5.64 nM. Further, in assay [2], the “1R/5R (selectivity ratio against MC5R)” value amounted to 0.13. Also, the “1R/4R (selectivity ratio against MC4R)” value in [4] worked out at 0.13.

For the molecule Ac-[hPhe]H[dF]RW-NH2 (Synthetic; also called compound 2) [Ac-Homophenylalanine-His-DPhe-Arg-Trp-NH2], the inhibitory constant (Ki) amounted to 58.2 nM in [1] and 1.77 nM in assay [5].

B4: 4-phenylbutyryl-His-DPhe-Arg-Trp-NH2 (peptide)
peptide: {Butanoyl(4-Ph)}-H[dF]RW-NH2
notes: Synthetic peptidomimetic; also called compound 1
In turn, B4 came in with a Ki in assay [5] of 0.17 nM. That is a sub-nanomolar value.

B5: 4-phenylbutyryl-His-DPhe-Arg-Trp-Gly-Lys(Mpr-IR800CW)-NH2 (peptide)
peptide: {Butanoyl(4-Ph)}-H[dF]RWGK([Mpa-IR800CW])-NH2
notes: Near-infrared dye conjugate of the MC1R ligand; also called MC1RL-800; MC1RL-800 probe
Take B5: in assay [6], the “probe-related fluorescence signal in A375/MC1R tumors after co-injection of 0.25 ug NDP-a-MSH, relative to the unblocked tumor, 2 hr after injection” value was 1.54 fold and the “probe-related fluorescence signal in A375 tumor after co-injection of 0.25 ug NDP-a-MSH, relative to the unblocked tumor, 2 hr after injection” value was 1.4 fold. Further, in assay [7], the “renal uptake of MC1RL-800 after co-injection of 1 nmol/kg MC4R/5R-selective ligand (SEQ ID NO:10), compared to control animals, 2 hr after injection” value was 1.56 fold. This molecule showed a Ki in assay [8] of 0.4 nM.

B6: 4-phenylbutyryl-His-DPhe-Arg-Trp-Gly-Lys(hex-5-ynoyl)-NH2 (peptide)
peptide: {Butanoyl(4-Ph)}-H[dF]RWGK(Butanoyl(4-ethynyl))-NH2
SMILES: C#CCCCC(=O)NCCCC[C@H](NC(=O)CNC(=O)[C@H](Cc1c[nH]c2ccccc12)NC(=O)[C@H](CCCNC(=N)N)NC(=O)[C@@H](Cc1ccccc1)NC(=O)[C@H](Cc1c[nH]cn1)NC(=O)CCCc1ccccc1)C(N)=O
notes: Synthetic; alkyne-functionalised form of compound 1; also called compound 4
In the case of B6, the results for the inhibition constant (Ki) in assay [9] and in assay [5] were 1.17 nM and 0.24 nM, respectively.

B7: MC1R-Cy5 probe (peptide)
peptide: {Butanoyl(4-Ph)}-H[dF]RWGK([Mpa-Cy5])-NH2
notes: also called Cy5 conjugated ligand; MC1R-635 probe
For the molecule B7, in [8], the affinity, expressed as Ki, was 0.3 nM.

In general, Ki refers to the dissociation constant of the complex between target and ligand, obtained from inhibition or displacement. A higher Ki goes with lower affinity.
